# Laboratory results from patent publication US20060171941A1.
# Positions count from the first letter of the chain named.
# B1: HuCC49V10 (antibody, V domains shown)
# VH: QVQLVQSGAEVVKPGASVKISCKASGYTFTDHAIHWVKQNPGQRLEWIGYFSPGNDDFKYSQKFQGKATLTADTSASTAYVELSSLRSEDTAVYFCTRSLNMAYWGQGTLVTVSS
# VL: DIVMSQSPDSLAVSLGERVTLNCKSSQSVLYSSNSKNYLAWYQQKPGQSPKLLIYWASTRESGVPDRFSGSGSGTDFTLTISSVQAEDVAVYYCQQYYSYPLSFGAGTKLELK
# B2: humanized CC49 (CDR-grafted) (antibody, V domains shown)
# VH: B1 VH with S61N, Q62E, K63R, Q65K
# VL: B1 VL with V29L, S33G, S35Q, T59A, S103T
# How the values were obtained:
# [1] = molecular target: anti-V region antibodies to CC49 in the serum of patient one; assay: SPR competition for patient one serum anti-V region Abs
# [2] = molecular target: tumor-associated glycoprotein-72 on the cell surface of Jurkat cells; assay: flow cytometry, 0.5 ug Ab on Jurkat cells expressing TAG-72
# [3] = molecular target: bovine submaxillary mucin (TAG-72 positive) (bovine); assay: competition RIA against 125I-mCC49 on BSM; relative affinity constant, modified Scatchard
# [4] = molecular target: anti-V region antibodies to CC49 in the serum of patient one; assay: SPR competition, soluble competitor Ab against immobilized HuCC49 for patient one serum anti-V region Abs
# [5] = molecular target: anti-V region antibodies to CC49 in the serum of patient two; assay: SPR competition, soluble competitor Ab against immobilized HuCC49 for patient two serum anti-V region Abs
Binder,concentration required for 20% inhibition [1],percent inhibition at 1000 nM [1],% of gated cells [2],mean fluorescence intensity [2],Ka [3],IC50 [4],IC50 [5]
B1,80 nM,< 30%,25.8%,62.9,5.9e+07 M⁻¹,> 1000 nM,7.7 nM
B2,2 nM,–,–,–,1.16e+08 M⁻¹,6 nM,2.2 nM
